# Experimental data published in EP4755912A1 (Shandong Boan Biotechnology Co., Ltd., dated 2026).
# Read-outs that look alike come from different tables or passages of the source.
# T1: Human CD228 protein (human, UniProt P08582 20-708, limits assumed)
# T1 construct: A His tag is named only for the panning and Western blot material (CD228-His); also called CD228 antigenic protein; C28
# T1 sequence: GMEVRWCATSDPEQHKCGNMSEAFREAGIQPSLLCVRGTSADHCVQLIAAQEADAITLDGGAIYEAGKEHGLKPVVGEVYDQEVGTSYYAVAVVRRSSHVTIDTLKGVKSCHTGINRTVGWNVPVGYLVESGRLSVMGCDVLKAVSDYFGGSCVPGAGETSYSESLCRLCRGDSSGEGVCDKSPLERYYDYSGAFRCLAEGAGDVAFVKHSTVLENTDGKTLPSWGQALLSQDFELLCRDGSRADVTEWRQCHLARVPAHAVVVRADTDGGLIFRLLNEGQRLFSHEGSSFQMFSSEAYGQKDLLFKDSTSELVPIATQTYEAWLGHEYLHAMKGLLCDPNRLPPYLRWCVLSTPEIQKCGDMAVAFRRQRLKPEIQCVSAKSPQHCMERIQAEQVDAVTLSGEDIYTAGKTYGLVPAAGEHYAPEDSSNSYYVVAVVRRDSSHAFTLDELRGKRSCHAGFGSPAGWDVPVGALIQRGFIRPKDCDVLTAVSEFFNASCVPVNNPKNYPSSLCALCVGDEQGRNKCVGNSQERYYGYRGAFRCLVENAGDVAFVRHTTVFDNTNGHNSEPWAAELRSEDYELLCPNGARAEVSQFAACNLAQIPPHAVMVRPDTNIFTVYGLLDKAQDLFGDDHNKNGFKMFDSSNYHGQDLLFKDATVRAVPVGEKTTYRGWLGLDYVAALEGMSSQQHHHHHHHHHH
# B1: R526 (antibody, V domains shown)
# VH: QEQLEESGGRLVTPGTPLTLTCTVSGFSLSTYAINWIRQAPGKGLEWIGIIGGNGATYYTNWAKGRFTISKTSTTVDLKITSPTIEDTATYFCARGTNFWGPGTLVTVSS
# VL: DPVLTQTASPVSAAVGGTITINCQASQSVYNNNQLSWFQQNPGQPPKRLIHSTSTLAPGVSSRFKGSGSGTQFTLTISDVQCDDAATYYCLGSYDCVSADCNAFGGGTEVVVKG
# notes: Rabbit-derived clone, full-length antibody with rabbit constant regions
# B2: R546 (antibody, V domains shown)
# VH: QSLEESGGRLVKPDETLTLTCTVSGFSLSSYDMSWVRQAPGKGLQWIGAATAGGNTYHASWAKGRFTISKTSTTVDLKITSPTTEDTATYFCTRGLNIWGPGTLVTVSS
# VL: DPMLTQTASPVSAAVGSTVTINCQASQSVYNNNNLNWYQQKPGQPPKLLIYAASTLASGVPSRFKGSGSGTQFTLTISDVQCDDAATYYCLGAYDCSSADCGAFGGGTELEILG
# notes: Rabbit-derived clone from a phage library, made as a full-length antibody with rabbit constant regions in HEK293 cells; also called CD228-R546; self-made antibody R546
# Experiments:
# Human CD228 protein [1] = molecular target: T1, Human CD228 protein; test: ELISA, plate coated with CD228 protein at 0.2 µg/mL
# Human CD228 protein [2] = molecular target: T1, Human CD228 protein; test: BLI, antibody on ProA sensor, CD228 protein in solution
# Human CD228 protein [3] = molecular target: T1, Human CD228 protein; test: as above; remark: listed apart in the source
Binder,EC50 (Human CD228 protein [1]) [ng/mL],Kd (Human CD228 protein [2]) [nM],Response (Human CD228 protein [2]),Kd (Human CD228 protein [3]) [nM]
B1,5.71,< 0.001,0.0251,–
B2,1.52,1.33,0.128,1.33
